Where two headings read alike, the source gives them in different places.
Key:
[1] = biological target: mouse Nav1.7 (mouse (endogenous in CD-1 mice)) (UniProt Q62205)
human FC5‐DIE3IR [2] = biological target: T1, human FC5‐DIE3IR (Homo sapiens, chimera, glycosylated (about up to 50%)); experiment: SPR; Biacore T200, 25 °C, HBS‐EP+ (10 mM HEPES pH 7.4, 150 mM NaCl, 3 mM EDTA, 0.05% P20); FC5‐DIE3IR and FC5 amine coupled (300–400 RU) on CM5; VHH DI‐D monomer fractions flowed at 312 nM to 5 µM, single cycle kinetics; KD by steady state analysis; details: both partners purified
T1 construct: llama VHH FC5 from its N-terminus to residue 101 (three CDR3 residues kept on the N-terminal side of the graft); human Nav1.7 alpha subunit, 70 residues of extracellular loop 3 of domain DI (DIE3IR), put in place of Ser102-Leu107 of the CDR3 of FC5; llama VHH FC5 from residue 108 to its C-terminus (four CDR3 residues kept on the C-terminal side of the graft); Two disulfide bonds in the grafted …

rat FC5‐DIE3IR = biological target: T2, rat FC5‐DIE3IR (Rattus norvegicus, UniProt O08562, chimera); experiment: as above; details: both partners purified
T2 construct: llama VHH FC5 N-terminal part, as the first part of m2; rat Nav1.7 alpha subunit, the stretch equivalent to the human DIE3IR domain; llama VHH FC5 C-terminal part, as the last part of m2; source: cloned as the human one (pTT5); SEC purified (Superdex 75) for SPR

mouse FC5‐DIE3IR = biological target: T3, mouse FC5‐DIE3IR (Mus musculus, UniProt Q62205, chimera); experiment: as above; details: both partners purified
T3 construct: llama VHH FC5 N-terminal part, as the first part of m2; mouse Nav1.7 alpha subunit, the stretch equivalent to the human DIE3IR domain; llama VHH FC5 C-terminal part, as the last part of m2; source: cloned as the human one (pTT5); SEC purified (Superdex 75) for SPR

human FC5‐DIE3IR [3] = biological target: T1, human FC5‐DIE3IR; experiment: SPR; Biacore T200, 25 °C, HBS-EP+ (10 mM HEPES pH 7.4, 150 mM NaCl, 3 mM EDTA, 0.05% P20); FC5-DIE3IR (human, mouse, rat) and FC5 amine coupled (300-400 RU) on CM5; SEC-purified monomeric VHH DI-D flowed over at 312 nM to 5 µM, single cycle kinetics; KD by steady state analysis
[4] = biological target: Rat FC5-DIE3IR (llama | rat); experiment: as above
[5] = biological target: Mouse FC5-DIE3IR (llama | mouse); experiment: as above
human FC5‐DIE3IR [6] = biological target: T1, human FC5‐DIE3IR; experiment: as above; remark: listed apart in the source
[7] = biological target: Mouse FC5-DIE3IR (llama | mouse); experiment: as above; remark: listed apart in the source
human FC5‐DIE3IR [8] = biological target: T1, human FC5‐DIE3IR; experiment: as above; remark: listed apart in the source
[9] = biological target: Rat FC5-DIE3IR (llama | rat); experiment: as above; remark: listed apart in the source
[10] = biological target: Mouse FC5-DIE3IR (llama | mouse); experiment: as above; remark: listed apart in the source
[11] = biological target: rat, mouse and human FC5‐DIE3IR; experiment: SPR; Biacore T200, 25 °C, HBS‐EP+ (10 mM HEPES pH 7.4, 150 mM NaCl, 3 mM EDTA, 0.05% P20); FC5‐DIE3IR and FC5 amine coupled (300–400 RU) on CM5; VHH DI‐D monomer fractions flowed at 312 nM to 5 µM, single cycle kinetics; KD by steady state analysis

B1: VHH DI‐D (VHH)
VHH: QVKLEESGGGLVQPGGSLKLSCVASGFAFSSAPMDWVRKAPGKDVEWLSTIESDQDHTIYYANSVKGRFTISRDDVQNILYLQMNDLKIEDTATYYCQKRGEKKTRGQGTQVTVSS
notes: CDR3 of VHH DI-D as printed in the discussion; Isolated from a naive llama, alpaca and camel phage library (LAC-M) by panning on FC5-DIE3IR; source: E. coli, purified by IMAC (gene synthesized and cloned by GenScript; pSJF2 expression vector); SEC-purified monomer fractions for SPR
time mice spend in pain behaviors, mouse OD1 model, VHH DI‐D (50 µg) pre‐mixed 30 min with FC5‐DIE3IR (200 µg): no reduction [1]: 312 s
binding result (human FC5‐DIE3IR [2]): binds
binding result (rat FC5‐DIE3IR): binds
binding result (mouse FC5‐DIE3IR): binds
Kd (human FC5‐DIE3IR [3]): 1700 nM
Kd [4]: 1560 nM
Kd [5]: 1660 nM
Kd (human FC5‐DIE3IR [6]): 1710 nM
Kd [7]: 1680 nM
Kd (human FC5‐DIE3IR [8]): 1720 nM
Kd [9]: 1590 nM
Kd [10]: 1700 nM
Kd [11]: 1560 to 1720 nM

— paper PMC11516162, “A Novel Antigen Design Strategy to Isolate Single‐Domain Antibodies that Target Human Nav1.7 and Reduce Pain in Animal Models” (Advanced Science, 2024)
